Data as given in patent publication US9567399 (dated 2017).
One block for each binder: values may come before it.

What was measured:
human PD-L1 His [1] = target: human PD-L1 His (human); assay: SPR, 25C
human PD-L1 His [2] = target: human PD-L1 His (human); assay: SPR
human PD-L1 His [3] = target: human PD-L1 His (human); assay: ELISA, competition with CD80
human PD-L1 His [4] = target: human PD-L1 His (human); assay: SPR, 25C; remark: listed apart in the source
human PD-L1 His [5] = target: human PD-L1 His (human); assay: ELISA, competition with PD-1
TIGIT = target: T1, TIGIT (human, UniProt Q495A1); assay: SPR
T1 chain: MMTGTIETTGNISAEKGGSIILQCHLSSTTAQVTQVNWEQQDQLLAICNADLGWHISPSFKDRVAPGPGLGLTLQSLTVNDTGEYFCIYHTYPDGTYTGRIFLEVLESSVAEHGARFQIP

human PD-L1 His [6] = target: human PD-L1 His (human); assay: SPR, 37C
cyno PD-L1 FLAG = cyno PD-L1 FLAG (cynomolgus); assay: SPR, 37C
Sequence of cyno PD-L1 FLAG (cynomolgus) (chain, as listed by the source): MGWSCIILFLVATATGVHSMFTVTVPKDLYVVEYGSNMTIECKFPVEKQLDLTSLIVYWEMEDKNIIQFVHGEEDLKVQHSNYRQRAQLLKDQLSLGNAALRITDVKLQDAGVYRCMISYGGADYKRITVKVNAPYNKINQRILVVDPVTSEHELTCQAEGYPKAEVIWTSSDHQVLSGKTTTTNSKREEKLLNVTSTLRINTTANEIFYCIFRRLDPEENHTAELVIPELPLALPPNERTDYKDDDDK

human PD-L1 His [7] = target: human PD-L1 His (human); assay: ELISA, competition with PD-1; remark: listed apart in the source

Kd (human PD-L1 His [1]): 0.33 nM
B1: 1D05 VH V to A (antibody, V domains shown)
VH: EVQLVESGGGLVQPGRSLRLSCAASGFTFDDYAMHWVRQAPGKGLEWVSGISWIRTGIGYADSVKGRFTIFRDNAKNSLYLQMNSLRAEDTALYYCAKDMKGSGTYGGWFDTWGQGTLVTVSS
VL: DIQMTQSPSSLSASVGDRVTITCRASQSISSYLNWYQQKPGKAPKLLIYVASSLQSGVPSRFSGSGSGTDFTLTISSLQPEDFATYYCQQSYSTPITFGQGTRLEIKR

Kd (human PD-L1 His [2]): 0.27 nM
B2: Bispecific 1, PD-L1 arm (antibody)
chain 1: EVQLVESGGGLVQPGRSLRLSCAASGFTFDDYAMHWVRQVPGKGLEWVSGISWIRTGIGYADSVKGRFTIFRDNAKNSLYLQMNSLRAEDTALYYCAKDMKGSGTYGGWFDTWGQGTLVTVSS
chain 2: not shown

IC50 (human PD-L1 His [3]): 0.7 nM | Kd (human PD-L1 His [4]): 0.2 nM
B3: 1D05 D9-7 (antibody)
chain 1: EVQLVESGGGLVQPGRSLRLSCAASGFTFDDYAMHWVRQVPGKGLEWVSGISWIRTGIGYADSVKGRFTIFRDNAKNSLYLQMNSLRAEDTALYYCAKDMKGSGTYGGWFDTWGQGTLVTVSS
chain 2: not shown

Kd (human PD-L1 His [4]): 0.214 nM
B4: 1D05 IC64 (D5-7) (antibody)
chain 1: EVQLVESGGGLVQPGRSLRLSCAASGFTFDDYAMHWVRQVPGKGLEWVSGISWIRTGIGYADSVKGRFTIFRDNAKNSLYLQMNSLRAEDTALYYCAKDMKGSGTYGGWFDTWGQGTLVTVSS
chain 2: not shown

Kd (human PD-L1 His [1]): 0.23 nM
B5: 1D05 VH F to S (antibody, V domains shown)
VH: EVQLVESGGGLVQPGRSLRLSCAASGFTFDDYAMHWVRQVPGKGLEWVSGISWIRTGIGYADSVKGRFTISRDNAKNSLYLQMNSLRAEDTALYYCAKDMKGSGTYGGWFDTWGQGTLVTVSS
VL: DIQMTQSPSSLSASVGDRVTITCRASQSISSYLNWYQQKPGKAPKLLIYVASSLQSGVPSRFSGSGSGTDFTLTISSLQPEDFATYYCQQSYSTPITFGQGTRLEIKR

IC50 (human PD-L1 His [3]): 1.07 nM | IC50 (human PD-L1 His [5]): 1.75 nM | Kd (human PD-L1 His [4]): 0.195 nM
B6: 1D05 IC46 (D1-9) (antibody)
chain 1: EVQLVESGGGLVQPGRSLRLSCAASGFTFDDYAMHWVRQVPGKGLEWVSGISWIRTGIGYADSVKGRFTIFRDNAKNSLYLQMNSLRAEDTALYYCAKDMKGSGTYGGWFDTWGQGTLVTVSS
chain 2: not shown

Kd (human PD-L1 His [4]): 0.203 nM
B7: 1D05 IC45 (D5-9) (antibody)
chain 1: EVQLVESGGGLVQPGRSLRLSCAASGFTFDDYAMHWVRQVPGKGLEWVSGISWIRTGIGYADSVKGRFTIFRDNAKNSLYLQMNSLRAEDTALYYCAKDMKGSGTYGGWFDTWGQGTLVTVSS
chain 2: not shown

Kd (human PD-L1 His [2]): 0.21 nM
B8: Bispecific 2, PD-L1 arm (antibody)
chain 1: EVQLVESGGGLVQPGRSLRLSCAASGFTFDDYAMHWVRQVPGKGLEWVSGISWIRTGIGYADSVKGRFTIFRDNAKNSLYLQMNSLRAEDTALYYCAKDMKGSGTYGGWFDTWGQGTLVTVSS
chain 2: not shown

Kd (human PD-L1 His [2]): 0.35 nM | binding result (TIGIT): no binding | Kd (human PD-L1 His [6]): 0.42 nM | Kd (cyno PD-L1 FLAG): 0.43 nM
B9: 1D05 (antibody)
chain 1: EVQLVESGGGLVQPGRSLRLSCAASGFTFDDYAMHWVRQVPGKGLEWVSGISWIRTGIGYADSVKGRFTIFRDNAKNSLYLQMNSLRAEDTALYYCAKDMKGSGTYGGWFDTWGQGTLVTVSS
chain 2: not shown

Kd (human PD-L1 His [1]): 2.8 nM
B10: 1D05 VH V to A, VL V to A (antibody, V domains shown)
VH: EVQLVESGGGLVQPGRSLRLSCAASGFTFDDYAMHWVRQAPGKGLEWVSGISWIRTGIGYADSVKGRFTIFRDNAKNSLYLQMNSLRAEDTALYYCAKDMKGSGTYGGWFDTWGQGTLVTVSS
VL: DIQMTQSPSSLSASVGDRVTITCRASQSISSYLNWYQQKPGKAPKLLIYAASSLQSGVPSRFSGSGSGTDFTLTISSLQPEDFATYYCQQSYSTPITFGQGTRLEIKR

Kd (human PD-L1 His [1]): 0.23 nM
B11: 1D05 VH V to A and F to S (antibody, V domains shown)
VH: EVQLVESGGGLVQPGRSLRLSCAASGFTFDDYAMHWVRQAPGKGLEWVSGISWIRTGIGYADSVKGRFTISRDNAKNSLYLQMNSLRAEDTALYYCAKDMKGSGTYGGWFDTWGQGTLVTVSS
VL: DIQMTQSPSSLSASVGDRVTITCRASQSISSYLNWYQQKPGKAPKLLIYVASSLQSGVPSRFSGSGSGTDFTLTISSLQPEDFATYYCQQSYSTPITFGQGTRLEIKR

IC50 (human PD-L1 His [7]): 7.9 nM | Kd (human PD-L1 His [6]): 0.43 nM | Kd (cyno PD-L1 FLAG): 0.52 nM
B12: 84G09 (antibody, V domains shown)
VH: EVQLVESGGGLVQPGRSLRLSCAASGFTFDDYAMHWVRQTPGKGLEWVSGISWKSNIIGYADSVKGRFTISRDNAKNSLYLQMNSLRAEDTALYYCARDITGSGSYGWFDPWGQGTLVTVSS
VL: DIQMTQSPSSLSASVGDRVTITCRASQSISSYLNWYQQKPGKAPKPLIYVASSLQSGVPSSFSGSGSGTDFTLTISSLQPEDFATYYCQQSYSNPITFGQGTRLEIK
